From paper PMC12240809

Biological target: V5–FoTO1 (Taxus media)
Experiment: co-IP; lysate of N. benthamiana leaves co-expressing both proteins; anti-V5 antibody on protein G magnetic beads, blot with anti-HA-HRP; lysates incubated 15 min with no compound, 45 μM taxadiene or a mock terpene (caryophyllene); extraction buffer 50 mM Tris pH 7.5, 150 mM NaCl, 0.6% NP-40, 0.6% CHAPS, 1 mM β-mercaptoethanol

Chain of T5αH–HA (Q6WG30 whole entry): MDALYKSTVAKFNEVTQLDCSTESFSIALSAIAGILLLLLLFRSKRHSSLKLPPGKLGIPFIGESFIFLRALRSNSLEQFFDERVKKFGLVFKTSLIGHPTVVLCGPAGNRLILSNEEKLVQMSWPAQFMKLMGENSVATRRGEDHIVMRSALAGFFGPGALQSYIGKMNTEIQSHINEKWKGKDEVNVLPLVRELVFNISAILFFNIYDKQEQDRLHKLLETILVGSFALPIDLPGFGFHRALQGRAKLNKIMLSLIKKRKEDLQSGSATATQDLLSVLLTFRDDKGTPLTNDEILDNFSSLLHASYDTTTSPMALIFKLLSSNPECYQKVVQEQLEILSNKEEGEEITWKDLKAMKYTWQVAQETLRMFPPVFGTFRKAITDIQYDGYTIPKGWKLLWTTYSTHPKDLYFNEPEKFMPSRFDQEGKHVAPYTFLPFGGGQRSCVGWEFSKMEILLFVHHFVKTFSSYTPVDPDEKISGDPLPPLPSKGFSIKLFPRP

T5αH–HA (from UniProt Q6WG30 1-499) (enzyme)
fold increase of the co-IP signal with 45 μM taxadiene: 4 fold
